This note sets out measurements from article PMC4251995.

Assay [1] deals with Phosphorylated DesR wild type, full-length (Bacillus subtilis) (UniProt O34723). Kind of assay: SAXS.
The target is the same in assay [2]. Kind of assay: SEC.

For the substance “Phosphorylated DesR wild type, full-length (from UniProt O34723 1-199) (natural protein)”, the stoichiometry N in assay [1] and in assay [2] was 2 throughout.
